Test results reported in PMC3227653 (2011).

B1: pepsin-treated A5.1m (VHH)
VHH: QVKLEESGGGLVQAGGSLRLSCAASGRTFSMYRMGWFRQAPGKEREFVCVITRNGSSTYYADSVKGRFTCSRDNAKNTVYLQMNSLKPEDTALYYCAATSGSSYLDAAHVYDYWGQGTQVTVSS
B2: pepsin-treated A26.8m (VHH)
VHH: QVKLEESGGGLVQAGGSLRLSCAASERTFSRYPVAWFRQAPGAEREFVCVISSTGTSTYYADSVKGRFTCSRDNAKVTVYLQMNNLKREDTAVYFCAVNSQRTRLQDPNEYDYWGQGTQVTVSS
B3: pepsin-treated A4.2m (VHH)
VHH: QVKLEESGGGLVQAGGSLRLSCAASGRTFNTLSMGWFRQAPGKEREFVCAVSRSGGSTYYADSVKGRFTCSRDNAKNTVYLQMNSLKPEDTAVYYCAAAATKSNTTAYRLSFDYWGQGTQVTVSS

Target: Clostridium difficile toxin A (C. difficile, UniProt P16154 1-2710)
Experiment: SPR

Row | Binder | koff
1 | B1 | 0.013 s⁻¹
2 | B2 | 0.019 s⁻¹
3 | B3 | 0.016 s⁻¹
